Test system: cultured PBMCs of the allergic donors
Experiment: ELISPOT of IL-5 or IFNg production by cultured PBMCs of TG allergic donors in response to peptide
Type: cell-based, human
Conditions: for No of PG+ & th+ peptides per NTGA / No of PP & Th+ peptides per NTGA: Table 6; for No of PG+ & th+ peptides per NTGA: PG+ peptides recognized by T cells of grass allergic donors (n=20); for No of PP & Th+ peptides per NTGA: PP peptides recognized by T cells of grass allergic donors (n=20); for # Th+: Table 7, peptides per NTGA recognized by T cells of grass allergic donors (n=20); for NTGA's containing at least one T cell epitope, Th+ (Col 2): NTGA number given = criterion met, TG allergic donors n=20
In short: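 Counts of responding donors among 20 TG-allergic subjects, judged by ELISPOT for IL-5 or IFNg (positive: minimum 20 SFCs/10^6 PBMCs, stimulation index 2 or more, P .05). Cells were pre-expanded with TG pollen extract or peptide pool, then stimulated at 1×10^5/well with 10 μg/mL peptide.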

Molecule | No of PG+ & th+ peptides per NTGA | No of PP & Th+ peptides per NTGA | # Th+ | NTGA's containing at least one T cell epitope, Th+ (Col 2)
NTGA 87: Phl p wild type sequence, Table 2 (protein, Phleum Pratense) MAVKVYVVYYSMYGHVGKLAEEIKKGASSVEGVEVKVWQVPEILSEEVLGKMGAPPKTDVPIISPQELAEADGILFGFPTRFGMMASQMKAFFDATGGLWREQSLAGKPAGVFFSTGTQGGGQETTPLTAVTQLTHHGMVFVPVGYTFGAKMFDMEKVQGGSPYGAGTFAGDGSRWPSEMELEHAFHQGKYFAGIAKKLKGS | 0 | 0 | 0 | –
NTGA 8: Phl p wild type sequence, Table 2 (protein, Phleum Pratense) FEGCLAKSYKSEKSDKSATYDYSANIECEKEPPKPLYGGGILTGAEAPAPVSAGGKKLLMAKSKSAPAKGSTLKVELEKDTHYTLSAWLQLSKSTGDVKAILVTPDGNFNTAGMLVVQSGCWTMLKGGATSFAAGKGELFFETNVTAELMVDSMSLQPFSFEEWKSHRHESIAKERKKKVKITVHGSDGKVLPDAELSLERVAKGFPLGNAMTKEILDIPEYEKWFTSRFTVATMENEMKWYSTEYDQNQELYEIPDKMLALAEKYNISVRGHNVFWDDQSKQMDWVSKLSAPQLKKAMEKRMKNVVSRYAGKLIHWDVLNENLHYSFFEDKLGKDASAEVFKEVAKLDDKPILFMNEYNTIEEPNDAAPLPTKYLAKLKQIQSYPGNSKLKYGIGLESHFDTPNIPYVRGSLDTLAQAKVPIWLTEIDVKKGPKQVEYLEEVMREGFAHPGVKGIVLWGAWHAKECYVMCLTDKNFKNLPVGDVVDKLITEWKAVPEDAKTDDKGVFEAELFHGEYNVTVKHKS | – | – | 0 | –
NTGA 13: Phl p wild type sequence, Table 2 (protein, Phleum Pratense) MDEEYDVIVLGTGLKECILSGLLSVDGLKVLHMDRNDYYGGESTSLNLTKIWKRFKGSEATPDHLGVSKEYNVDMVPKFMMANGALVRVLIRTSVTKYLNFKAVDGSFVYNNGKIHKVPATDVEALKSNLMGLFEKRRARKFFIYVQDYEEEDPKSHEGLDLHKVTTREVISKYGLEDDTVDFIGHALALHRDDNYLDEPAIDTVKRMKLYAESLARFQGGSPYIYPLYGLGELPQAFARLSAVYGGTYMLNKPECKVEFDESGKAFGVTSEGETAKCKKVVCDPSYLPDKVTKVGRVARAICIMKHPIPDTKDSHSVQIILPKKQLKRKSDMYVFCCSYAHNVAPKGKFIAFVSTEAETDKPEIELKPGIDLLGPVEETFFDIYDRYEPANAPEEDNCFVTNSYDATTHFETTVKDVLALYSKITGKELDLSVDLNAASAGESE | 0 | 0 | 0 | –
NTGA 39/59: Phl p wild type full length sequence from which PG+ peptides of NTGA's 39 and 59 derive (protein, Phleum Pratense) MAPRKFFVGGNWKCNGASDDVKKIVTVLNEAEVPSEDAVEVVVSPPFVFLQQAKALLRPDFAVAAQNCWVRKGGAFTGEISAEMLVNLQVPWVILGHSERRALLSESNDFVADKVAYALAQGLKVIACIGETLEQREAGTTMEVVAAQTKAIAEKISDWTNVVLAYEPVWAIGTGKVASRAQAQEVHDGLRKWLHANVGPAVAESTRIIYGGSVNGANCKELAAQPDLDGFLVGGASLKPEFVDIIKSATVKSSS | – | – | – | 39/59
NTGA 73: Phl p wild type sequence, Table 2 (protein, Phleum Pratense) MSSAKQVLEPAFQGAGQKPGTEIWRIENFNPVPLPKSDYGKFYCGDSYIVLQTTCNKGGAYLFDIHFWIGKDSSQDEAGTSAIKTVELDTMLGGRAVQHREPQGYESDKFLSYFKPCIIPLEGGFASGFKTPEEEKFETRLYICKGKRAIRVKEVPFARSSLNHDDVFILDTEKKIYQFNGANSNIQERAKALEVIQHLKDKYHEGVCDVAIVDDGKLQAESDSGEFWVVFGGFAPIGKKTVSDDDVILETSPTKLYSINNGKLKLEDIVLTKSILENTKCFLLDCGSELFVWVGRVTQVDDRKAASAAVEEFIVKQNRPKTTRVTQVIQGYENHTFKSLFESWPVSSTGNASTEEGRGKVAALLKKKGDVKGASKNSTPVNEEVPPLLEGSGKLEVWCVDGSAKTALPKEDLGKFHSGDCYIVLYTYHSGEKREEFYLTYWIGKDSVLEDQHMALQIATTIWNSMKGRPVLGRIYQGKEPPQFIALFQPMVILKGGISSGYKKSIEENGLKDETYSGTGIALVHIHGTSIHNNKTLQVDAVSISLSSTDCFVLQSGNSMFTWIGNTSSYEQQQWAAKVAEFLKPGASVKHCKEGTESSAFWSALGGKQNYTSKNATQDVLREPHLYTFSFRNGKLEVTEVFNFSQDDLLTEDVMILDTHAEVFVWMGQCVDTKEKQTAFETGQKYVEHAVNFEGLSPDVPLYKVSEGNEPCFFRTYFSWDNTRSVIHGNSFQKKLSLLFGMRSESGSKGSGDGGPTQRASALAALSSAFNPSSQDKQSNDRPKSSGDGGPTQRASALAALSSSLNPSSKPKSPHSQSRSGQGSQRAAAVAALSNVLTAEGSTLSPRNDAEKTELAPSEFHTDQDAPGDEVPSEGERTEPDVSQEETANENGGETTFSYDRLISKSTDPVRGIDYKRRETYLSDSEFETVFGVTKEEFYQQPRWKQELQKRKADLF | 0 | 0 | 0 | –
NTGA 52: Phl p wild type sequence, Table 2 (protein, Phleum Pratense) MDACRLLLLLLLGLLGLLAPLASAQLSREFYKASCPDAEKIVAAVIEKKLKEDPGTAAGLLRLLFHDCFANGCDASILIDPLSNQSAEKEAGPNISVRGFEVIDDIKKELEAKCPKTVSCADIVALGTRDAVRISGGPAYEVPTGRRDSLVSNREEADNNLPGPDIPIPKLTSEFLSRGFTPEEMVVLLAGGHSIGKVRCIFIEPDATPMDPGYQASISKLCDGPNRDTGFVNMDEHNPNVIDSSYFANVLAKKMPLTVDRLLGLDSKTTPIIKNMLNKPNDFMPTFAKAMEKLSVLKVITGKDG | – | – | 1 | –
NTGA 3: Phl p wild type sequence, Table 2 (protein, Phleum Pratense) MDDHKEHKEKEHTGGNPEVNEEEEEDEEAKRAVLLGPQVPLKEQLELDKDDESLRRWKEQLLGQVDTEQLGETAEPEVKVVDLTILSPDRPDLVLPIPFVADEKGYAFALKDGSTYSFRFSFIVSNNIVSGLKYTNTVWKTGVRVENQKMMLGTFSPQPEPYIYVGEEETTPAGIFARGSYSAKLKFVDDDGKVYLEMSYYFEIRKDWPTGQ | 0 | 0 | 0 | –
NTGA 86: Phl p wild type sequence, Table 2 (protein, Phleum Pratense) MSTAEATREENVYMAKLAEQAERYEEMVEFMEKVAKTADVGELTVEERNLLSVAYKNVIGARRASWRIISSIEQKEESRGNEAYVASIKEYRTRIETELSKICDGILKLLDSHLVPSATAAESKVFYLKMKGDYHRYLAEFKAGAERKEAAENTLVAYKSAQDIALADLPTTHPIRLGLALNFSVFYYEILNSPDRACNLAKQAFDEAIAELDSLGEESYKDSTLIMQLLRDNLTLWTSDNADEGGDEIKEASKPEGEGH | 1 | 1 | 0 | 86
NTGA 19: Phl p wild type sequence, Table 2 (protein, Phleum Pratense) GVVATTDAVEACTGVNVAVMVGGFPRKEGMERKDVMSKNVSIYKSQASALEAHAAPNCKVLVVANPANTNALILKEFAPSIPEKNISCLTRLDHNRALGQVSERLNVQVSDVKNVLIWGNHSSSQYPDVNHATVKTSSGEKPVRELVQDDEWLNGPFIATVQQRGAAIIKARKLSSALSAASSACDHIRDWVLGTPEGTFVSMGVYSDGSYGVPAGLIYSFPVTCSGGEWTIVQGLPIDEFSRKKMDATAQELSEEKALAYSCL | 0 | 0 | 0 | –
NTGA 5/64: Phl p wild type full length sequence from which PG+ peptides of NTGA's 5 and 64 derive (protein, Phleum Pratense) MAAKCYPTVSDEYLAAVAKARRKLRGLIAEKNCAPLMLRIAWHSAGTFDVATKTGGPFGTMRCPAELAHGANAGLDIAVRLLEPIKEQVPILSYADFYQLAGVVAVEITGGPEVPFHPGRQDKTEPPPEGRLPDATLGSDHLRQVFTAQMGLSDQDIVALSGGHTLGRCHKERSGFEGAWTANPLIFDNSYFTELLTGEKEGLLQLPTDKTLLTDPAFRPLVEKYAADEDAFFADYAEAHLKLSELGFGE | – | – | – | 5/64
